Paper PMC12291137

Columns and labels:
[1] = biological target: substrate B with the designed M13 variant M13-3 (SpyCatcher-M13-3-LPETG-SpyTag(DA)); assay: ITC; CaM (200 μM) titrated into B or P (18 μM); the paper calls K_a(c) an apparent binding constant
[2] = biological target: substrate B with the designed M13 variant M13-2 (SpyCatcher-M13-2-LPETG-SpyTag(DA)); assay: as above
[3] = biological target: substrate B (SpyCatcher-M13-LPETG-SpyTag(DA)), with the original M13 (M13-1); assay: kinetics of the covalent SpyTag-SpyCatcher reaction by SDS-PAGE densitometry + LC-MS of the product; A and B mixed 1:1 (10 μM each) with 0.1 equiv of SrtA or C, Tris-HCl buffer, pH 8.0, 10 mM CaCl2, 37 °C

Row | Substance | Ka [1] | Ka [2] | k AB(c), second-order rate constant of the covalent SpyTag-SpyCatcher reaction in the catalyzed cascade (with C) [3] | k AB(s), second-order rate constant of the covalent SpyTag-SpyCatcher reaction in the spontaneous cascade (with SrtA) [3]
1 | calmodulin (CaM) (from UniProt P0DP23 1-149) (natural protein) | < 100 M⁻¹ | 20000 M⁻¹ |  | 
2 | substrate A (GGG-SpyTag-YFP) |  |  | 90 M^–1 s^–1 | 67 M^–1 s^–1
